From US20090297501A1 (Chugai, published 2009) come the findings set out here.

Numbering of substitutions follows the chain as printed. Read-outs that look alike come from different tables or passages of the source.

In experiment [1] the target is T1, human Mpl (human, UniProt P40238 26-635).
T1 sequence (looked up): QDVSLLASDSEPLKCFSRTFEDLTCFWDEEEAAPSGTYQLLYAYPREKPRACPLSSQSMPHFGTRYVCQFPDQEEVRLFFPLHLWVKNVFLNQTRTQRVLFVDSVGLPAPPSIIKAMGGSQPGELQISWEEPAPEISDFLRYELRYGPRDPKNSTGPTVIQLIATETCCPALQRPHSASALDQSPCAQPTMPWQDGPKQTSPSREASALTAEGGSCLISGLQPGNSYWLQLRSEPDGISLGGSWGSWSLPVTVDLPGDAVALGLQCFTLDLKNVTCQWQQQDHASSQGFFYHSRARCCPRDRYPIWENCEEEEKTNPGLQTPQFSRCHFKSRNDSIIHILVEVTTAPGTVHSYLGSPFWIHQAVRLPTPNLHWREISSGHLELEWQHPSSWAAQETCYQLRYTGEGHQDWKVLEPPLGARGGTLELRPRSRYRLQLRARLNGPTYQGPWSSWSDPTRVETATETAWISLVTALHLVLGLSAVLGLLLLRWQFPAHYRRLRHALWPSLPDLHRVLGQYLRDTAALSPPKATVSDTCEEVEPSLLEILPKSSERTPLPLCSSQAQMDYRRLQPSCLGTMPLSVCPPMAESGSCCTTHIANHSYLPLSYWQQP
The experiment is described as follows: cell-based or functional assay.

Experiment [2] has as its target monkey Mpl (monkey). The experiment is described as follows: cell-based or functional assay.
In experiment [3] the target is T1, human Mpl. Kind of experiment: cell-based or functional assay. The source holds these as a separate data set.
In experiment [4] the target is monkey Mpl (monkey). The experiment is described as follows: cell-based or functional assay. This is another data set of the same source.
In experiment [5] the target is T2, fusion protein of GST and MG10 (Gln213 to Ala231 in the amino acid sequence of human Mpl) (human, UniProt P40238 213-231).
T2 construct: the parts follow the printed name MG10-GST; also called MG10-GST fusion protein; not shown: glutathione S-transferase (GST)
The experiment is described as follows: Biacore 3000, MG10-GST amine-coupled on CM5, sc(Fv)2 as analyte, bivalent analyte model, n = 3. As to the method: The binding activities of hVB22B u2-wz4 sc(Fv)2, and peak 1 and peak 2 separated from hVB22B u2-wz4 sc(Fv)2 were evaluated as described below. Sensor Chip CM5 Biacore) was placed in Biacore 3000 (Biacore), and a fusion protein of MG10 (Gln213 to Ala231 of human Mpl) and GST described in Section 2-1 was immobilized onto the chip by the amine-coupling method. HSS-EP Buffer (Biacore) was used as the running buffer for the measurement. The flow rate was 20 μl/min. Six concentrations of each of humanized VB22B u2-wz4 sc(Fv)2 bulk, peak 1, and peak 2 within about 5 to 150 nM were prepared using HBS-EP Buffer. Each of the samples was injected over the above-described MG10-immobilized cell for 2 minutes to reveal the binding region. Then, the measurement was conducted for 2 minutes to reveal the dissociation region. VB22B sc(Fv)2 bound to the MG10-GST fusion protein was removed by injecting 20 mM HCl for 1 minute to recover the immobilized cell. The association rate constant (ka) and dissociation rate constant (kd) were calculated from the obtained sensorgram using the BIAevaluation Version 3.1 ([…]) software applying the bivalent analyte model.

For experiment [6], the target named is T1, human Mpl. Kind of experiment: cell-based or functional assay. This is another data set of the same source.
The target in experiment [7] is monkey Mpl (monkey). The experiment is described as follows: cell-based or functional assay. This is another data set of the same source.
For experiment [8], the target named is Mpl on the BaF3 cells used in FIG. 33 (human or monkey, not stated). Kind of experiment: cell-based or functional assay.

B1: humanized anti-human Mpl antibody hVB22B u2-wz4 sc(Fv)2 (bulk, before separation of the structural isomers) (scFv)
chain: QVQLVQSGPEVKKPGASVKVSCKASGYTFTNSWMNWVRQRPGKGLEWIGRIYPGDGETIYNGKFRVRVTITADESTSTAYMQLSSLRSEDTAVYYCARGYDDYSFAYWGQGTTVTVSSGGGGSGGGGSGGGGSDIVMTQSPLSLPVTPGEPASISCRSSKSLLHSNGNTYLYWFLQKPGQSPQLLIYRMSNLASGVPDRFSGSGSGTDFTLKISRVEAEDVGVYYCMQHIEYPFTFGQGTKLEIKGGGGSGGGGSGGGGSQVQLVQSGPEVKKPGASVKVSCKASGYTFTNSWMNWVRQRPGKGLEWIGRIYPGDGETIYNGKFRVRVTITADESTSTAYMQLSSLRSEDTAVYYCARGYDDYSFAYWGQGTTVTVSSGGGGSGGGGSGGGGSDIVMTQSPLSLPVTPGEPASISCRSSKSLLHSNGNTYLYWFLQKPGQSPQLLIYRMSNLASGVPDRFSGSGSGTDFTLKISRVEAEDVGVYYCMQHIEYPFTFGQGTKLEIK
notes: sc(Fv)2, a single chain VH1-linker-VL2-linker-VH3-linker-VL4, not Flag-tagged; also called humanized VB22B u2-wz4 sc(Fv)2 bulk
For orientation: koff means a measure of how fast the partners let go of each other. One may read the kon as the second-order rate constant of association. On to B1, for which the “EC50 (read off the curve) (growth of BaF3-human Mpl cells, WST-8) [A]” value (from here on “EC50 (read off the curve) … [A]”) in the experiment with human Mpl [1] is about 0.04 nM. Further, the “EC50 (read off the curve) (growth of BaF3-monkey Mpl cells, WST-8) [B]” value (from here on “EC50 (read off the curve) … [B]”) in the experiment with monkey Mpl [2] was about 0.04 nM. In addition, the “EC50 (read off the curve) … [A]” value in the experiment with human Mpl [3] is about 0.06 nM. Further, the “EC50 (read off the curve) … [B]” value in the experiment with monkey Mpl [4] is about 0.02 nM. In experiment [5], the Kd was 10.2 nM, the off-rate (koff) stood at 0.00617 s⁻¹ and the kon was determined as 608000 M⁻¹ s⁻¹.

B2: hVB22B u2-wz4 sc(Fv)2 peak 1 (bivalent scFv type structural isomer) (scFv)
chain: B1 chain
notes: also called purified u2-wz4 peak 1
Take B2: the “EC50 (read off the curve) … [A]” value with human Mpl [1] is about 0.07 nM. Besides, the “EC50 (read off the curve) … [A]” value with human Mpl [3] was about 0.09 nM. Moreover, in experiment [5], the Kd came out at 12.4 nM, the koff was found to be 0.00727 s⁻¹ and the kon was determined as 586000 M⁻¹ s⁻¹.

B3: hVB22B u2-wz4 sc(Fv)2 peak 2 (single chain diabody type structural isomer) (scFv)
chain: B1 chain
notes: also called purified u2-wz4 peak 2
As to B3, the “EC50 (read off the curve) … [A]” value with human Mpl [1] was about 0.04 nM; with human Mpl [3], about 0.05 nM. In addition, the “EC50 (read off the curve) … [B]” value in the experiment with monkey Mpl [2] was about 0.03 nM; with monkey Mpl [4], about 0.02 nM. Also, in experiment [5], the Kd was determined as 9.92 nM. The molecule also displayed a koff in experiment [5] of 0.00566 s⁻¹. The same molecule registered a kon in experiment [5] of 571000 M⁻¹ s⁻¹.

B4: modified hVB22B u2-wz4(v1) sc(Fv)2 (scFv)
chain: B1 chain with Q39E, Q176E, Q299K, Q436K
As for B4, the “EC50 (read off the curve) … [A]” value with human Mpl [3] is about 0.04 nM. Also, the “EC50 (read off the curve) … [B]” value with monkey Mpl [4] is about 0.04 nM.

B5: modified hVB22B u2-wz4(v3) sc(Fv)2 (scFv)
chain: B1 chain with Q39E, Q176K, Q299K, Q436E
For B5, the “EC50 (read off the curve) … [A]” value with human Mpl [3] was about 0.1 nM.

B6: anti-human Mpl antibody VB22B sc(Fv)2 peak 2 (single chain diabody type structural isomer) (scFv)
chain: QVQLQQSGPELVKPGASVKISCKASGYAFTNSWMNWVKQRPGKGLEWIGRIYPGDGETIYNGKFRVKATLTADKSSSTAYMDISSLTSEDSAVYFCARGYDDYSFAYWGQGTLVTVSAGGGGSGGGGSGGGGSDIVMTQAAPSIPVTPGESVSISCRSSKSLLHSNGNTYLYWFLQRPGQSPQLLIYRMSNLASGVPDRFSGSGSGTAFTLRISRVEAEDVGVYYCMQHIEYPFTFGSGTKLEIKGGGGSGGGGSGGGGSQVQLQQSGPELVKPGASVKISCKASGYAFTNSWMNWVKQRPGKGLEWIGRIYPGDGETIYNGKFRVKATLTADKSSSTAYMDISSLTSEDSAVYFCARGYDDYSFAYWGQGTLVTVSAGGGGSGGGGSGGGGSDIVMTQAAPSIPVTPGESVSISCRSSKSLLHSNGNTYLYWFLQRPGQSPQLLIYRMSNLASGVPDRFSGSGSGTAFTLRISRVEAEDVGVYYCMQHIEYPFTFGSGTKLEIK
Regarding B6, the “EC50 (read off the curve) … [A]” value in the experiment with human Mpl [6] is about 0.008 nM. Further, the “EC50 (read off the curve) … [B]” value with monkey Mpl [7] is about 0.02 nM. In addition, the “EC50 (read off the curve) (growth of Mpl-expressing BaF3 cells, WST-8; cell line not stated)” value in experiment [8] was about 0.6 ng/mL.

B7: anti-human Mpl antibody VB22B sc(Fv)2 (scFv)
chain: B6 chain
In the case of B7, in the experiment with human Mpl [6], the “EC50 (read off the curve) … [A]” value is about 0.01 nM. In addition, the “EC50 (read off the curve) … [B]” value with monkey Mpl [7] was about 0.03 nM.
